Data reported in publication doi:10.1101/2023.03.09.531510.
Values belong to the substance of their own block, whether it stands above or below them.

Key:
Experiment in all cases: protein-fragment complementation
[1] = target: Aim21 (UniProt P40563)
[2] = target: Arc15 (UniProt P40518)
[3] = target: Arc18 (UniProt Q05933)
[4] = target: Arc19 (UniProt P33204)
[5] = target: Arc40 (UniProt P38328)
[6] = target: Bbc1 (UniProt P47068)
[7] = target: Bmh1 (UniProt P29311)
[8] = target: Bzz1 (UniProt P38822)
[9] = target: Cdc10 (UniProt P25342)
[10] = target: Cdc3 (UniProt P32457)
[11] = target: Chc1 (UniProt P22137)
[12] = target: Cmd1 (UniProt P06787)
[13] = target: Hek2 (UniProt P38199)
[14] = target: Hsp104 (UniProt P31539)
Sequence of UniProt P31539 (P31539 whole entry): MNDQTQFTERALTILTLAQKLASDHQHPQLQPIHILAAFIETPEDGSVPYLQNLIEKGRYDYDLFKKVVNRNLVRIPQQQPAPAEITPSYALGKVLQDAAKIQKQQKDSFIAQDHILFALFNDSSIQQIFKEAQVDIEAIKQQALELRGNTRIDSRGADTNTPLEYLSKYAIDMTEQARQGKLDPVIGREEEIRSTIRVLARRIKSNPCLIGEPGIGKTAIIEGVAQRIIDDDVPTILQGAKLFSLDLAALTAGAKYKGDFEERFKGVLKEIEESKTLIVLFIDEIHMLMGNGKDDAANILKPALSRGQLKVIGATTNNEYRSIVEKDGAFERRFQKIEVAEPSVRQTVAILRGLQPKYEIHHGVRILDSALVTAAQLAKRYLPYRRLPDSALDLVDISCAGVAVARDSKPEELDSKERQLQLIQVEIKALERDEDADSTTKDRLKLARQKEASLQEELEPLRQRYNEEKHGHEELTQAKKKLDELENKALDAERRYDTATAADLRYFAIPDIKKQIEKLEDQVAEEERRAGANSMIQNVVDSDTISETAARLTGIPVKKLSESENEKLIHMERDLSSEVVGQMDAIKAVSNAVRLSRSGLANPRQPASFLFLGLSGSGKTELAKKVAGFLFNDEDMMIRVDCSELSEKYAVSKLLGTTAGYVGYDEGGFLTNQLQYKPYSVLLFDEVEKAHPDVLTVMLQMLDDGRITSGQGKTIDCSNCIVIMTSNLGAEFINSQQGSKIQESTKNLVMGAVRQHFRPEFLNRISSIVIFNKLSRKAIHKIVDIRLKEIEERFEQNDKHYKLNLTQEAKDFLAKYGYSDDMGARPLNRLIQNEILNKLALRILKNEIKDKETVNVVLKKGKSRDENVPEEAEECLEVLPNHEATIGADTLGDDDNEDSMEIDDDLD

[15] = target: Las17 (UniProt Q12446)
[16] = target: Lsb3 (UniProt P43603)
[17] = target: Mid2 (UniProt P36027)
[18] = target: Myo5 (UniProt Q04439)
[19] = target: Nap1 (UniProt P25293)
Sequence of UniProt P25293 (P25293 whole entry): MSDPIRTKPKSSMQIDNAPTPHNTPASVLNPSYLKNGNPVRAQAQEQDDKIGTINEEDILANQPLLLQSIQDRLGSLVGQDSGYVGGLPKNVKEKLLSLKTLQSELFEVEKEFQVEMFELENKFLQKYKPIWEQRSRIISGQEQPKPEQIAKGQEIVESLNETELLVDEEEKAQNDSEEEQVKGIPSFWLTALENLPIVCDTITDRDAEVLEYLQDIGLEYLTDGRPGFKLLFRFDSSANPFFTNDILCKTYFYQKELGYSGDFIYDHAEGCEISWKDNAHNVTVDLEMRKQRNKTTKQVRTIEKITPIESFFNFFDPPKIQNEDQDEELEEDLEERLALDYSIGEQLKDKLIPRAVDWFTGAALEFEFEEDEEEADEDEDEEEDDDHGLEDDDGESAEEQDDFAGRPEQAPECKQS

[20] = target: Osh2 (UniProt Q12451)
[21] = target: Pab1 (UniProt P04147)
[22] = target: Pan1 (UniProt P32521)
[23] = target: Pfk1 (UniProt P16861)
[24] = target: Pkh2
[25] = target: Rvs167 (UniProt P39743)
[26] = target: Sac6 (UniProt P32599)
[27] = target: Sbp1 (UniProt P10080)
[28] = target: Sfk1 (UniProt P35735)
[29] = target: Sla1 (UniProt P32790)
[30] = target: Sla2 (UniProt P33338)
[31] = target: Smi1 (UniProt P32566)
[32] = target: Srv2 (UniProt P17555)
[33] = target: Ssb1 (UniProt P11484)
Sequence of UniProt P11484 (P11484 whole entry): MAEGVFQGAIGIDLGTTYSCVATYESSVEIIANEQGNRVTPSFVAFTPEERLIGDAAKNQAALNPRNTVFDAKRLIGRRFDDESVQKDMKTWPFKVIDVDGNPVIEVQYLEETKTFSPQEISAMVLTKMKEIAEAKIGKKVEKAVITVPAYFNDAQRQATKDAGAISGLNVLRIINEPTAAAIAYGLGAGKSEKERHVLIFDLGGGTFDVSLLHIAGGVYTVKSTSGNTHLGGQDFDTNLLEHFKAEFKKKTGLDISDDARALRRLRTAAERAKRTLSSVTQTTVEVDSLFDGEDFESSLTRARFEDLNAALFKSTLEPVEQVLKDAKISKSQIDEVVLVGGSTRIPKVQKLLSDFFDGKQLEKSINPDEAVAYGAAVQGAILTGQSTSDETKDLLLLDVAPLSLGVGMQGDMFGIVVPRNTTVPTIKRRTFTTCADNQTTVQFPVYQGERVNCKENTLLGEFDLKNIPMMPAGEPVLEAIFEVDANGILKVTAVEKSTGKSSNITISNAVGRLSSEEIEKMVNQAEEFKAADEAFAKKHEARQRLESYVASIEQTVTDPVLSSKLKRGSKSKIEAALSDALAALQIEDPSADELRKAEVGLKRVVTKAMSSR

[34] = target: Ssb2 (UniProt P40150)
[35] = target: Ssz1 (UniProt P38788)
[36] = target: Ste20 (UniProt Q03497)
Sequence of UniProt Q03497 (Q03497 whole entry): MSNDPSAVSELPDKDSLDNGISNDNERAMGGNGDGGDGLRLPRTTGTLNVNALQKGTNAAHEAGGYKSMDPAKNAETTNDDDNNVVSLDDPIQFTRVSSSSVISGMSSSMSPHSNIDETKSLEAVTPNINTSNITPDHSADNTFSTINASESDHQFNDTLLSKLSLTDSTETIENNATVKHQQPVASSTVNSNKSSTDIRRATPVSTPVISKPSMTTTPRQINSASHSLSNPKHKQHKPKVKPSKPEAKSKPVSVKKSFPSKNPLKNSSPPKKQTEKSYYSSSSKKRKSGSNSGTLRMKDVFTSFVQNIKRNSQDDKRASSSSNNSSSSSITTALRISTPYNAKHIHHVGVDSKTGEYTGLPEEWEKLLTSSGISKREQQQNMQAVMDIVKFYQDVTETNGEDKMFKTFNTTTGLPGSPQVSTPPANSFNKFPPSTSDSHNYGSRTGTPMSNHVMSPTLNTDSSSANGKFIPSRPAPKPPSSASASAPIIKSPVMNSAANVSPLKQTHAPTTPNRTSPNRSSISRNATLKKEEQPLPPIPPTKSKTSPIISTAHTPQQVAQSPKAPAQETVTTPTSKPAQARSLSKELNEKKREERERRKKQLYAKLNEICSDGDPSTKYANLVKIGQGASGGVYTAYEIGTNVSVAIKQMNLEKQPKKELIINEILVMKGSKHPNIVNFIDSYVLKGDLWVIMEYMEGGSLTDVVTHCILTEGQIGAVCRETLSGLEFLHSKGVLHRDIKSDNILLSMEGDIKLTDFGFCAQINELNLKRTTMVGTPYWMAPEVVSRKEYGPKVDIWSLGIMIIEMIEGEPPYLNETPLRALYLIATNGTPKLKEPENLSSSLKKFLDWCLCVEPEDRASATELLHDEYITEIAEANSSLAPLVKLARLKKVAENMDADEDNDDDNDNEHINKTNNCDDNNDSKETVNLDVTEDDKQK

[37] = target: Syp1 (UniProt P25623)
[38] = target: Tdh3 (UniProt P00359)
Sequence of UniProt P00359 (P00359 whole entry): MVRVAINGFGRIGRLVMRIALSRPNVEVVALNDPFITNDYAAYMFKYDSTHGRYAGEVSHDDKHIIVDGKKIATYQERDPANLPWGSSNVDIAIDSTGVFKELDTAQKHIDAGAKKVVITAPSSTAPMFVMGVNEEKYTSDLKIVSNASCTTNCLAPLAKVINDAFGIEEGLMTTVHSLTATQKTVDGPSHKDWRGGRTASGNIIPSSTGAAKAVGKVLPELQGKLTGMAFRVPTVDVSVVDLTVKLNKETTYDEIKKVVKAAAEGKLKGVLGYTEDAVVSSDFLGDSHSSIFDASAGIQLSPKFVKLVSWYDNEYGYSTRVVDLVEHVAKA

[39] = target: Tif4631 (UniProt P39935)
[40] = target: Vrp1 (UniProt P37370)
[41] = target: Ygl242c (UniProt P53066)
[42] = target: Yor1 (UniProt P53049)
[43] = target: Ysc84 (UniProt P32793)
[44] = target: Ssa1 (UniProt P10591)
[45] = target: Abp1 (UniProt P15891)

Sequence of UniProt P38328 (P38328 whole entry): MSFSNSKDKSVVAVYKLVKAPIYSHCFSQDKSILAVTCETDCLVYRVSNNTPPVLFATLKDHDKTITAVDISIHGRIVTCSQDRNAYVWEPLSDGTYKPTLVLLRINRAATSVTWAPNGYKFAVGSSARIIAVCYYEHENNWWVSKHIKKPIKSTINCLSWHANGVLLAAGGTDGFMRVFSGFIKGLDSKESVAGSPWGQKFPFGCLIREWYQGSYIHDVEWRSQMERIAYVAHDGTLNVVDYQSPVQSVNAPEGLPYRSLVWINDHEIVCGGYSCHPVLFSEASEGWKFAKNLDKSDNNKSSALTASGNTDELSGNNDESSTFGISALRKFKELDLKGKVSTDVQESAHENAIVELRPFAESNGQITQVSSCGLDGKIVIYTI
Sequence of UniProt P47068 (P47068 whole entry): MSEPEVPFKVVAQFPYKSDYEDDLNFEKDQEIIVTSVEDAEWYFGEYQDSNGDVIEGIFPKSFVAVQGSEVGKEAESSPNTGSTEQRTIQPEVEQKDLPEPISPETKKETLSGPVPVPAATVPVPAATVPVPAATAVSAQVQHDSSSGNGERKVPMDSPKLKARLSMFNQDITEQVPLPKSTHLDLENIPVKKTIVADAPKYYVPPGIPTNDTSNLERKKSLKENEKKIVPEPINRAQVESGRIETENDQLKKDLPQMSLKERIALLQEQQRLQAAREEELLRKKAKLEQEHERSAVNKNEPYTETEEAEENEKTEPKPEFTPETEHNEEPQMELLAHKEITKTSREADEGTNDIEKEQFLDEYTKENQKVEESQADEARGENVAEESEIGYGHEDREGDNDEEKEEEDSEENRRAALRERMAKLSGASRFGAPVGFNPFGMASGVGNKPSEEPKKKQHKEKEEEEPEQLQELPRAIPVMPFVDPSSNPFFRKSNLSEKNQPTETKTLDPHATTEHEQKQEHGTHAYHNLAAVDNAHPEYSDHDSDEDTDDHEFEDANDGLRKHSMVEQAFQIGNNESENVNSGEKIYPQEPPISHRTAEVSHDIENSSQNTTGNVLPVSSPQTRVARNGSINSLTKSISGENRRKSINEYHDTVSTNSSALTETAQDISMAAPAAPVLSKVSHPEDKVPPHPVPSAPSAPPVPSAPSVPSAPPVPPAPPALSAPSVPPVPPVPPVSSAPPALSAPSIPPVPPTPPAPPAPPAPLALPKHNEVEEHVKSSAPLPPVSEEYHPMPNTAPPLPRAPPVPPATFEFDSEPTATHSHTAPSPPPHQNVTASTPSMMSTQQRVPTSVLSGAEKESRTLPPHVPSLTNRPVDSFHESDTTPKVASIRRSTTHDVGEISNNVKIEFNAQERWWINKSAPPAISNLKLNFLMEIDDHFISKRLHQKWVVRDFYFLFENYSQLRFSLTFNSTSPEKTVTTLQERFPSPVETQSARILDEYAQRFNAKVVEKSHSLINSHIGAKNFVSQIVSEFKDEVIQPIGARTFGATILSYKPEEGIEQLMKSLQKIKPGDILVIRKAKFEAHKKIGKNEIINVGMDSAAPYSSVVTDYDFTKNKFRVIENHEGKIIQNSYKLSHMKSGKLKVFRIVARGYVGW
Sequence of UniProt P29311 (P29311 whole entry): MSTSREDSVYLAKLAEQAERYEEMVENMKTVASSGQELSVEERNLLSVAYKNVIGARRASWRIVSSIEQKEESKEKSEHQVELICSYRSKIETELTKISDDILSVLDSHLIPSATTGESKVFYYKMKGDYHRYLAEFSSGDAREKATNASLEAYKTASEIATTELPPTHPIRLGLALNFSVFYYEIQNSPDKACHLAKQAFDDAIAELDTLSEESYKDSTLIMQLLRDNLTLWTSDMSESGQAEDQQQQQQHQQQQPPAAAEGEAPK

Substance: Myo5 with SH3 AncB (from UniProt Q04439)
interaction score [1]: 0.755
interaction score [2]: 0.898
interaction score [3]: 0.878
interaction score [4]: 0.771
interaction score [5]: 0.964
interaction score [6]: 0.758
interaction score [7]: 0.823
interaction score [8]: 0.818
interaction score [9]: 0.416
interaction score [10]: 0.515
interaction score [11]: 0.603
interaction score [12]: 0.497
interaction score [13]: 0.417
interaction score [14]: 0.767
interaction score [15]: 0.875
interaction score [16]: 0.637
interaction score [17]: 0.854
interaction score [18]: 0.901
interaction score [19]: 0.52
interaction score [20]: 0.755
interaction score [21]: 0.797
interaction score [22]: 0.926
interaction score [23]: 0.867
interaction score [24]: 0.0795
interaction score [25]: 0.567
interaction score [26]: 0.823
interaction score [27]: 0.832
interaction score [28]: 0.733
interaction score [29]: 0.568
interaction score [30]: 0.646
interaction score [31]: 0.562
interaction score [32]: 0.649
interaction score [33]: 0.941
interaction score [34]: 0.932
interaction score [35]: 0.834
interaction score [36]: 0.482
interaction score [37]: 0.564
interaction score [38]: 0.97
interaction score [39]: 0.672
interaction score [40]: 0.919
interaction score [41]: 0.942
interaction score [42]: 0.488
interaction score [43]: 0.505

Substance: Myo5 with SH3 SH3-depleted (from UniProt Q04439)
interaction score [1]: 0.454
interaction score [2]: 0.877
interaction score [3]: 0.775
interaction score [4]: 0.469
interaction score [5]: 0.949
interaction score [6]: 0.139
interaction score [7]: 0.821
interaction score [8]: 0.34
interaction score [9]: 0.289
interaction score [10]: 0.288
interaction score [11]: 0.599
interaction score [12]: 0.27
interaction score [13]: 0.342
interaction score [14]: 0.771
interaction score [15]: 0.367
interaction score [16]: 0.339
interaction score [17]: 0.79
interaction score [18]: 0.763
interaction score [19]: 0.514
interaction score [20]: 0.0609
interaction score [21]: 0.813
interaction score [22]: 0.616
interaction score [23]: 0.874
interaction score [25]: 0.0148
interaction score [26]: 0.766
interaction score [27]: 0.852
interaction score [28]: 0.219
interaction score [29]: 0.27
interaction score [30]: 0.341
interaction score [31]: 0.547
interaction score [32]: 0.398
interaction score [33]: 0.94
interaction score [34]: 0.946
interaction score [35]: 0.853
interaction score [36]: 0.28
interaction score [37]: 0.199
interaction score [38]: 0.969
interaction score [39]: 0.689
interaction score [40]: 0.606
interaction score [41]: 0.95
interaction score [42]: 0.144
interaction score [43]: 0.281

Substance: Myo5 with SH3 controlMyo5 (from UniProt Q04439)
interaction score [1]: 0.756
interaction score [2]: 0.901
interaction score [3]: 0.87
interaction score [4]: 0.766
interaction score [5]: 0.952
interaction score [6]: 0.758
interaction score [7]: 0.82
interaction score [8]: 0.823
interaction score [9]: 0.374
interaction score [10]: 0.433
interaction score [11]: 0.578
interaction score [12]: 0.582
interaction score [13]: 0.36
interaction score [14]: 0.76
interaction score [15]: 0.877
interaction score [16]: 0.624
interaction score [17]: 0.857
interaction score [18]: 0.898
interaction score [19]: 0.463
interaction score [20]: 0.745
interaction score [21]: 0.785
interaction score [22]: 0.926
interaction score [23]: 0.855
interaction score [24]: 0.102
interaction score [25]: 0.5
interaction score [26]: 0.825
interaction score [27]: 0.827
interaction score [28]: 0.716
interaction score [29]: 0.539
interaction score [30]: 0.644
interaction score [31]: 0.532
interaction score [32]: 0.628
interaction score [44]: 0.902
interaction score [33]: 0.929
interaction score [34]: 0.93
interaction score [35]: 0.83
interaction score [36]: 0.421
interaction score [37]: 0.527
interaction score [38]: 0.965
interaction score [39]: 0.662
interaction score [40]: 0.912
interaction score [41]: 0.929
interaction score [42]: 0.432
interaction score [43]: 0.463

Substance: Myo5 with SH3 swap-optMyo3 (from UniProt Q04439)
interaction score [1]: 0.767
interaction score [2]: 0.903
interaction score [3]: 0.88
interaction score [4]: 0.78
interaction score [5]: 0.97
interaction score [6]: 0.767
interaction score [7]: 0.833
interaction score [8]: 0.835
interaction score [9]: 0.379
interaction score [10]: 0.457
interaction score [11]: 0.598
interaction score [12]: 0.458
interaction score [13]: 0.401
interaction score [14]: 0.774
interaction score [15]: 0.879
interaction score [16]: 0.643
interaction score [17]: 0.868
interaction score [18]: 0.907
interaction score [19]: 0.482
interaction score [20]: 0.762
interaction score [21]: 0.795
interaction score [22]: 0.936
interaction score [24]: 0.095
interaction score [25]: 0.53
interaction score [26]: 0.836
interaction score [27]: 0.835
interaction score [28]: 0.746
interaction score [29]: 0.56
interaction score [30]: 0.664
interaction score [31]: 0.562
interaction score [32]: 0.656
interaction score [44]: 0.91
interaction score [33]: 0.942
interaction score [34]: 0.935
interaction score [36]: 0.425
interaction score [37]: 0.543
interaction score [38]: 0.971
interaction score [39]: 0.689
interaction score [40]: 0.92
interaction score [41]: 0.944
interaction score [42]: 0.481
interaction score [43]: 0.475

The next lines start with the values.

interaction score [1]: 0.762
interaction score [2]: 0.9
interaction score [3]: 0.868
interaction score [4]: 0.768
interaction score [5]: 0.969
interaction score [6]: 0.762
interaction score [7]: 0.815
interaction score [8]: 0.814
interaction score [9]: 0.366
interaction score [10]: 0.422
interaction score [11]: 0.568
interaction score [12]: 0.26
interaction score [13]: 0.321
interaction score [14]: 0.758
interaction score [15]: 0.876
interaction score [16]: 0.62
interaction score [17]: 0.864
interaction score [18]: 0.901
interaction score [19]: 0.48
interaction score [20]: 0.756
interaction score [21]: 0.8
interaction score [22]: 0.926
interaction score [23]: 0.869
interaction score [24]: 0.11
interaction score [25]: 0.503
interaction score [26]: 0.823
interaction score [27]: 0.824
interaction score [28]: 0.736
interaction score [29]: 0.523
interaction score [30]: 0.621
interaction score [31]: 0.518
interaction score [32]: 0.632
interaction score [44]: 0.914
interaction score [33]: 0.942
interaction score [34]: 0.932
interaction score [35]: 0.835
interaction score [36]: 0.401
interaction score [37]: 0.513
interaction score [38]: 0.97
interaction score [39]: 0.665
interaction score [40]: 0.917
interaction score [41]: 0.938
interaction score [42]: 0.454
interaction score [43]: 0.463
Substance: Myo5 with SH3 extantMyo5 (from UniProt Q04439)

interaction score [45]: 0.908
interaction score [1]: 0.753
interaction score [2]: 0.9
interaction score [3]: 0.874
interaction score [4]: 0.762
interaction score [5]: 0.967
interaction score [6]: 0.755
interaction score [7]: 0.825
interaction score [8]: 0.818
interaction score [9]: 0.33
interaction score [10]: 0.472
interaction score [11]: 0.594
interaction score [12]: 0.196
interaction score [13]: 0.387
interaction score [14]: 0.767
interaction score [15]: 0.877
interaction score [16]: 0.628
interaction score [17]: 0.858
interaction score [18]: 0.903
interaction score [19]: 0.479
interaction score [20]: 0.76
interaction score [21]: 0.795
interaction score [22]: 0.925
interaction score [23]: 0.862
interaction score [24]: 0.168
interaction score [25]: 0.519
interaction score [26]: 0.824
interaction score [27]: 0.824
interaction score [28]: 0.714
interaction score [29]: 0.535
interaction score [30]: 0.632
interaction score [31]: 0.539
interaction score [32]: 0.637
interaction score [33]: 0.934
interaction score [34]: 0.932
interaction score [35]: 0.838
interaction score [36]: 0.417
interaction score [37]: 0.557
interaction score [38]: 0.972
interaction score [39]: 0.665
interaction score [40]: 0.917
interaction score [41]: 0.935
interaction score [42]: 0.492
interaction score [43]: 0.459
Substance: Myo5 with SH3 swapMyo3 (from UniProt Q04439)
